Where “and” joins values, the source holds several entries; their conditions need not be identical. Equal values may be shown once.
Molecular target: T1, Bak (endogenous, mitochondria of A549 cells) (human (endogenous in A549)), Q16611
T1 chain: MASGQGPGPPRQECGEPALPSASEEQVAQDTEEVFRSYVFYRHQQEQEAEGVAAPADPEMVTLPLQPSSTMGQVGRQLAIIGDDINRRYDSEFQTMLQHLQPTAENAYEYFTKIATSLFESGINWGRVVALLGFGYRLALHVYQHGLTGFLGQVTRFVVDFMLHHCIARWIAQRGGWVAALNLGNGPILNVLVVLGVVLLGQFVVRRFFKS
Assay: cross-linking; A549 cells treated with BKA-073 (1 uM) for 24 h; mitochondrial fraction; 10 mM BMH in PBS pH 7.2 with 5 mM EDTA, 1 h at room temperature, quenched with DTT; SDS-PAGE and Western blot with a Bak antibody
Conditions: remark: other sources report otherwise

stoichiometry N: 2 and 3
B1: Bak (endogenous, mitochondria of A549 cells), Q16611 1-211 (natural protein)
chain: MASGQGPGPPRQECGEPALPSASEEQVAQDTEEVFRSYVFYRHQQEQEAEGVAAPADPEMVTLPLQPSSTMGQVGRQLAIIGDDINRRYDSEFQTMLQHLQPTAENAYEYFTKIATSLFESGINWGRVVALLGFGYRLALHVYQHGLTGFLGQVTRFVVDFMLHHCIARWIAQRGGWVAALNLGNGPILNVLVVLGVVLLGQFVVRRFFKS
